Where no end group is shown, it is not given here. [ ]: non-standard residue; d: D form. Ac3c = NC1(C(=O)O)CC1; Aib = CC(C)(N)C(=O)O
How the values were obtained:
[1] = target: Human GLP-1 receptor (human, UniProt P43220 24-463); test: cell-based or functional assay
[2] = target: Human glucagon receptor (human, UniProt P47871 26-477); test: cell-based or functional assay

Chain of Human GLP-1 receptor (P43220 24-463): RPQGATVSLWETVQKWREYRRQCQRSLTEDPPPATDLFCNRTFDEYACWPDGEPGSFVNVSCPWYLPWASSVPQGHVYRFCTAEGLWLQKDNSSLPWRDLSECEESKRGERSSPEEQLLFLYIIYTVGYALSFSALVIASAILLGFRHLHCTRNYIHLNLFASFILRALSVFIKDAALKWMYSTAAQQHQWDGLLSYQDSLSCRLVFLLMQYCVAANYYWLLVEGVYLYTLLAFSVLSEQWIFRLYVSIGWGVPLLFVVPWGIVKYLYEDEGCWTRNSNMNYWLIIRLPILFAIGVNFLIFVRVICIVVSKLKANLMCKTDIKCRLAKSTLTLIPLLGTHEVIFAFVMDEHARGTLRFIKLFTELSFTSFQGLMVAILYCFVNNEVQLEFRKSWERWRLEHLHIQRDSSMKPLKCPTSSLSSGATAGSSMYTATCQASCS

Row | cAMP release, % activity with respect to control; test compound 1 nM [1] [%] | cAMP release, % activity with respect to control; test compound 10 nM [1] [%] | cAMP release, % activity with respect to control; test compound 100 nM [1] [%] | cAMP release, % activity with respect to control; test compound 1 µM [1] [%] | cAMP release, % activity with respect to control; test compound 10 µM [1] [%] | cAMP production with saturated glucagon peptide; test compound 1 nM [2] [pmol/ml/µg prt] | cAMP production with saturated glucagon peptide; test compound 10 nM [2] [pmol/ml/µg prt] | cAMP production with saturated glucagon peptide; test compound 100 nM [2] [pmol/ml/µg prt] | cAMP production with saturated glucagon peptide; test compound 10 µM [2] [pmol/ml/µg prt] | cAMP production with saturated glucagon peptide; test compound '1 nM' [2] [pmol/ml/µg prt] | Binder
1 | 69 | 98 | 99 | 99 | 99 | 4 | 2 | 0 | 0 | 0 | H[Aib]QGTFTSD[Bip(OMe)][Bip(2CF3)] [Seq. ID. No. 16: H-Aib-QGTFTSD-Bip(OMe)-Bip(2CF3)]
2 | 60 | 92 | 98 | 99 | 99 | 10 | 8 | 6 | 1 | 4 | H[Aib]QGTFTSD[Bip(OMe)][Bip(2Me)] [Seq. ID. No. 13: H-Aib-QGTFTSD-Bip(OMe)-Bip(2Me)]
3 | 51 | 86 | 91 | 99 | 99 | 10 | 8 | 6 | 0 | 2 | HAQGTFTSD[Bip(OMe)][Bip(2F)] [Seq. ID. No. 11: HAQGTFTSD-Bip(OMe)-Bip(2F)]
4 | 99 | 99 | 99 | 99 | 99 | 0 | 0 | 0 | 0 | 0 | HXQGTXTSDXX (not fully specified; ACP at 2; α-Me-2F-Phe at 6; Bip(OMe) at 10; Bip(Pyr) at 11) [Seq. ID. No. 34: H-(ACP)-QGT-(α-Me-2F-Phe)-TSD-Bip(OMe)-Bip(Pyr)]
5 | 62 | 94 | 99 | 99 | 99 | 9 | 6 | 5 | 0 | 3 | H[Aib]QGTFTSD[Bip(OMe)][Bip(Pyr)] [Seq. ID. No. 14: H-Aib-QGTFTSD-Bip(OMe)-Bip(Pyr)]
6 | 99 | 99 | 99 | 99 | 99 | 5 | 3 | 1 | 0 | 0 | HXQGTXTSDXX (not fully specified; ACP at 2; α-Me-2F-Phe at 6; Bip(OMe) at 10; Bip(2F) at 11) [Seq. ID. No. 35: H-(ACP)-QGT-(α-Me-2F-Phe)-TSD-Bip(OMe)-Bip(2F)]
7 | 38 | 78 | 86 | 95 | 98 | 20 | 18 | 16 | 12 | 14 | HSQGTFTSD[Bip(OMe)][Bip(2Me)]-NH2 [Seq. ID. No. 5: HSQGTFTSD-Bip(OMe)-Bip(2Me)]
8 | 86 | 99 | 99 | 99 | 99 | 0 | 0 | 0 | 0 | 0 | H[Ac3c]QGTFTSD[Bip(OMe)][Bip(Pyr)] [Seq. ID. No. 18: H-(ACP)-QGTFTSD-Bip(OMe)-Bip(Pyr)]
9 | 40 | 81 | 87 | 95 | 98 | 4 | 2 | 0 | 0 | 0 | HSQGTFTSD[Bip(OMe)][Bip(2CF3)] (not fully specified (C-terminus); printed as HSQGTFTSD-Bip(OMe)-Bip(2CF3)) [Seq. ID. No. 8: HSQGTFTSD-Bip(OMe)-Bip(2CF3)]
10 | 38 | 77 | 85 | 94 | 97 | 18 | 16 | 12 | 6 | 8 | HAQGTFTSD[Bip(OMe)][Bip(2Me)] (not fully specified (C-terminus); printed as HAQGTFTSD-Bip(OMe)-Bip(2Me)) [Seq. ID. No. 9: HAQGTFTSD-Bip(OMe)-Bip(2Me)]
11 | 66 | 97 | 99 | 99 | 99 | 6 | 5 | 2 | 0 | 0 | H[Aib]QGTFTSD[Bip(OMe)][Bip(2F)] [Seq. ID. No. 15: H-Aib-QGTFTSD-Bip(OMe)-Bip(2F)]
12 | 45 | 84 | 90 | 99 | 99 | 6 | 5 | 2 | 0 | 0 | HSQGTFTSD[Bip(OMe)][Bip(2F)] (not fully specified (C-terminus); printed as HSQGTFTSD-Bip(OMe)-Bip(2F)) [Seq. ID. No. 7: HSQGTFTSD-Bip(OMe)-Bip(2F)]
13 | 78 | 99 | 99 | 99 | 99 | 2 | 0 | 0 | 0 | 0 | H[Ac3c]QGTFTSD[Bip(OMe)][Bip(2Me)] [Seq. ID. No. 17: H-(ACP)-QGTFTSD-Bip(OMe)-Bip(2Me)]
